The values below come from publication PMC6258710, “Architecture and subunit arrangement of the complete Saccharomyces cerevisiae COMPASS complex” (Scientific Reports, 2018).

T1: Set1 (S. cerevisiae, UniProt P38827 1-1080)
T1 construct: Set1, histone H3K4 methyltransferase subunit of COMPASS, S. cerevisiae, full length; also called TAP-Set1; TAP-SET1; source: S. cerevisiae (strain yCOS2), overexpressed from the GAL1-10 promoter with the six Cps subunits; in lysate for the TAP purification; then purified as the COMPASS complex (IgG-Sepharose, TEV, calmodulin-Sepharose, glycerol gradient or GraFix); not shown: TAP, N-terminal, kept
T1 sequence (looked up): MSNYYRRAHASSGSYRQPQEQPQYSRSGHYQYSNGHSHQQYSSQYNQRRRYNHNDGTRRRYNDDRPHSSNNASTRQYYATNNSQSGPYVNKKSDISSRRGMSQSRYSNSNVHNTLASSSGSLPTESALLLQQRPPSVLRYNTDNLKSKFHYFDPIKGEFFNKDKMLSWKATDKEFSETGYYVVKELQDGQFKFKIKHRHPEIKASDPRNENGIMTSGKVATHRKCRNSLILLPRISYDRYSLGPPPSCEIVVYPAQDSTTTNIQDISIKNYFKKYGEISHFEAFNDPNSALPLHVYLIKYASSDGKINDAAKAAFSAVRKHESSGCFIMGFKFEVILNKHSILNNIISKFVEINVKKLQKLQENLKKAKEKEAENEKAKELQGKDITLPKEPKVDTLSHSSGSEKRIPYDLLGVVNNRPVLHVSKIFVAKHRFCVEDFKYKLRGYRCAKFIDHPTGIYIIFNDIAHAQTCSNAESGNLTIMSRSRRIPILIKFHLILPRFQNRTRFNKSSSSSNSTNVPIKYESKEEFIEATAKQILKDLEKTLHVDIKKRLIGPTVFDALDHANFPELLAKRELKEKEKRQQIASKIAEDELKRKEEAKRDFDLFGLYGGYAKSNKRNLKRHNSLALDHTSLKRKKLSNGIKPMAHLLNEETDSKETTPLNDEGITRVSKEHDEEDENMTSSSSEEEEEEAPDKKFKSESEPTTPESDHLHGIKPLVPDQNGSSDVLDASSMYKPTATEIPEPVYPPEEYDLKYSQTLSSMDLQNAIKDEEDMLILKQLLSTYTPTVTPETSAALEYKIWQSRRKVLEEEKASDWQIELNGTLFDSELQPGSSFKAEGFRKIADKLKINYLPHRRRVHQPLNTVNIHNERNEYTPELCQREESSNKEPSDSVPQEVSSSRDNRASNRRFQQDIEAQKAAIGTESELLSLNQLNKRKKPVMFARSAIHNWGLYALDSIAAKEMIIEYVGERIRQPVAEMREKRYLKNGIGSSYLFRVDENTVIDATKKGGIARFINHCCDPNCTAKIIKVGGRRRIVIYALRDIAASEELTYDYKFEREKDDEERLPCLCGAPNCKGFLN

B1: Cps60/Bre2 (natural protein, S. cerevisiae, UniProt P43132 1-505, looked up)
chain: MKLGIIPYQEGTDIVYKNALQGQQEGKRPNLPQMEATHQIKSSVQGTSYEFVRTEDIPLNRRHFVYRPCSANPFFTILGYGCTEYPFDHSGMSVMDRSEGLSISRDGNDLVSVPDQYGWRTARSDVCIKEGMTYWEVEVIRGGNKKFADGVNNKENADDSVDEVQSGIYEKMHKQVNDTPHLRFGVCRREASLEAPVGFDVYGYGIRDISLESIHEGKLNCVLENGSPLKEGDKIGFLLSLPSIHTQIKQAKEFTKRRIFALNSHMDTMNEPWREDAENGPSRKKLKQETTNKEFQRALLEDIEYNDVVRDQIAIRYKNQLFFEATDYVKTTKPEYYSSDKRERQDYYQLEDSYLAIFQNGKYLGKAFENLKPLLPPFSELQYNEKFYLGYWQHGEARDESNDKNTTSAKKKKQQQKKKKGLILRNKYVNNNKLGYYPTISCFNGGTARIISEEDKLEYLDQIRSAYCVDGNSKVNTLDTLYKEQIAEDIVWDIIDELEQIALQQ
notes: Cps60/Bre2, subunit of COMPASS, S. cerevisiae, full length; source: S. cerevisiae (strain yCOS2), overexpressed from the GAL1-10 promoter; in lysate for the TAP purification; then co-purified with TAP-Set1 as the COMPASS complex
B2: Cps25/Sdc1 (natural protein, S. cerevisiae, UniProt Q03323 1-175, looked up)
chain: MNESENSPQHNEVTVPMVEDTSSNADIPMEQIQREDNKNYDKHDNECFDMNGNHNNNSDNLQFDSVPSSATKDLKNIKSVTNQNVKIEESSSTNSVIEESSEPKISKLENVNLAATVGGSQTRKYLNTNVTPHLLAGMRLIAVQQPEDPLRVLGEYLIEQSNILKSGEKESNASK
notes: Cps25/Sdc1, subunit of COMPASS, S. cerevisiae, full length; source: S. cerevisiae (strain yCOS2), overexpressed from the GAL1-10 promoter; in lysate for the TAP purification; then co-purified with TAP-Set1 as the COMPASS complex
B3: Cps30/Swd3 (natural protein, S. cerevisiae, UniProt P38123 1-315, looked up)
chain: MFQFVTPVGTQNGLKATCAKISPDGQFLAITQGLNILIYDINRRTVSQTLVTSHARPFSELCWSPDGQCIATASDDFSVEIIHLSYGLLHTFIGHTAPVISLTFNRKGNLLFTSSMDESIKIWDTLNGSLMKTISAHSEAVVSVDVPMNDSSILSSGSYDGLIRIFDAETGHCLKTLTYDKDWKRENGVVPISQVKFSENARYLLVKSLDGVVKIWDCIGGCVVRTFQVQPLEKGVLHHSCGMDFLNPEDGSTPLVISGYENGDIYCWNSDTKSLLQLLDGSLYHHSSPVMSIHCFGNIMCSLALNGDCCLWRWV
notes: Cps30/Swd3, WD40 repeat subunit of COMPASS, S. cerevisiae, full length; source: S. cerevisiae (strain yCOS2), overexpressed from the GAL1-10 promoter; in lysate for the TAP purification; then co-purified with TAP-Set1 as the COMPASS complex
B4: Cps35/Swd2 (natural protein, S. cerevisiae, UniProt P36104 1-329, looked up)
chain: MTTVSINKPNLLKFKHVKSFQPQEKDCGPVTSLNFDDNGQFLLTSSSNDTMQLYSATNCKFLDTIASKKYGCHSAIFTHAQNECIYSSTMKNFDIKYLNLETNQYLRYFSGHGALVNDLKMNPVNDTFLSSSYDESVRLWDLKISKPQVIIPSLVPNCIAYDPSGLVFALGNPENFEIGLYNLKKIQEGPFLIIKINDATFSQWNKLEFSNNGKYLLVGSSIGKHLIFDAFTGQQLFELIGTRAFPMREFLDSGSACFTPDGEFVLGTDYDGRIAIWNHSDSISNKVLRPQGFIPCVSHETCPRSIAFNPKYSMFVTADETVDFYVYDE
notes: Cps35/Swd2, WD40 repeat subunit of COMPASS, S. cerevisiae, full length; source: S. cerevisiae (strain yCOS2), overexpressed from the GAL1-10 promoter; in lysate for the TAP purification; then co-purified with TAP-Set1 as the COMPASS complex
B5: Cps40/Spp1 (natural protein, S. cerevisiae, UniProt Q03012 1-353, looked up)
chain: MSLPQWCPPHSTLKRNPTTGEDVYCICKRPDYGELMVGCDGCDDWFHFTCLHIPEQFKDLVFSFYCPYCQAGITGKNKDAIINGEGSLPKTLWKRKCRISDCYKPCLQDSKYCSEEHGREFVNDIWSRLKTDEDRAVVKKMVEQTGHIDKFKKFGQLDFIDNNIVVKTDDEKEIFDQIVVRDMTLKTLEDDLQEVQEISLPLFKKKLELLEVYLGWLDNVYTEMRKLDDDAASHVECGKEDSKGTKRKKKKNSSRSRARKNICGYCSTYERIPCSVEEFVRDFGSNEEATKIHEVCTKWKCNRHLDWVSTNQEQYLQQIDSLESMQERLQHLIQARKKQLNIQYYEEILRRGL
notes: Cps40/Spp1, subunit of COMPASS, S. cerevisiae, full length; source: S. cerevisiae (strain yCOS2), overexpressed from the GAL1-10 promoter; in lysate for the TAP purification; then co-purified with TAP-Set1 as the COMPASS complex
B6: Cps50/Swd1 (natural protein, S. cerevisiae, UniProt P39706 1-426, looked up)
chain: MNILLQDPFAVLKEHPEKLTHTIENPLRTECLQFSPCGDYLALGCANGALVIYDMDTFRPICVPGNMLGAHVRPITSIAWSPDGRLLLTSSRDWSIKLWDLSKPSKPLKEIRFDSPIWGCQWLDAKRRLCVATIFEESDAYVIDFSNDPVASLLSKSDEKQLSSTPDHGYVLVCTVHTKHPNIIIVGTSKGWLDFYKFHSLYQTECIHSLKITSSNIKHLIVSQNGERLAINCSDRTIRQYEISIDDENSAVELTLEHKYQDVINKLQWNCILFSNNTAEYLVASTHGSSAHELYIWETTSGTLVRVLEGAEEELIDINWDFYSMSIVSNGFESGNVYVWSVVIPPKWSALAPDFEEVEENVDYLEKEDEFDEVDEAEQQQGLEQEEEIAIDLRTREQYDVRGNNLLVERFTIPTDYTRIIKMQSS
notes: Cps50/Swd1, WD40 repeat subunit of COMPASS, S. cerevisiae, full length; source: S. cerevisiae (strain yCOS2), overexpressed from the GAL1-10 promoter; in lysate for the TAP purification; then co-purified with TAP-Set1 as the COMPASS complex

The target of assay [1] is T1, Set1. The assay can be described thus: tandem affinity purification (TAP), SDS-PAGE; yeast lysate; TAP-Set1 held on IgG-Sepharose, washed with 350 mM NaCl, TEV elution, calmodulin-Sepharose, EGTA elution, then glycerol gradient centrifugation; subunits seen by SDS-PAGE. The note with it: partners not purified.
The assay “Cps60/Bre2” deals with B1. The assay can be described thus: cross-linking; purified COMPASS from the glycerol gradient cross-linked with 1 mM disuccinimidyl suberate (DSS), on ice 2 h; trypsin digest, LC-MS/MS, pLink and xlinkx (XL-MS). The note with it: both partners purified.
In assay [2] the target is T1, Set1. The assay is described as above. Conditions: both partners purified.
In assay [3] the target is T1, Set1. The experiment in a line: cryo-EM structure; complete COMPASS after GraFix (glutaraldehyde), map at 10.0 Å; subunits placed by DID, PA-NZ-1 Fab and eGFP labelling and by docking of homology models. Conditions: both partners purified.
In the assay “Cps50/Swd1” the target is B6. The description is as above. The note with it: both partners purified.

On to B1, for which the binding result with Set1 [1] is “binds”.
With B2, the binding result with Cps60/Bre2 and in the assay with Set1 [2] was “binds” throughout.
Take B3: the binding result with Set1 [3] and with Cps50/Swd1 was “binds” throughout.
Consider B4, for which, in the assay with Set1 [2], the binding result was “binds”.
Same read-out and setting: for B5 the value was “binds”.
Regarding B6, the binding result with Set1 [3] is recorded as “binds”.
